# Experiments:
# [1] = target: HIV-1 Rev wildtype, fused at its carboxy terminus to CFP (donor) or YFP (acceptor) (HIV-1 strain HXB3); assay: FRET or BRET
# [2] = target: ZipRevSLT40: yeast GCN4 leucine zipper fused to the amino terminus of RevSLT40, with CFP or YFP at the carboxy terminus (yeast | HIV-1 strain HXB3); assay: FRET or BRET
Substance,percent FRET positive cells [1],percent FRET positive cells [2]
"HIV-1 Rev wildtype, fused at its carboxy terminus to CFP (donor) or YFP (acceptor) (natural protein)",80.3%,–
"ZipRevSLT40: yeast GCN4 leucine zipper fused to the amino terminus of RevSLT40, with CFP or YFP at the carboxy terminus",–,41.9%

# Source: article PMC3366918
